Assay results: publication PMC6021170
Numbering of substitutions follows the chain as printed. In names and notes the source's numbering stands.

Legend:
[1] = ELISA of conditioned medium, endogenous prothrombin, HepG2; conditions: glycan changed form; control: untreated HepG2 cells
[2] = ELISA of cell lysates, endogenous prothrombin, HepG2; conditions: glycan changed form; control: untreated HepG2 cells
[3] = western blot of cell lysates, HEK293; conditions: glycan lost; control: PT-WT
[4] = western blot of conditioned medium, HEK293; conditions: glycan lost; control: PT-WT
[5] = confocal co-staining with or without CHX; conditions: glycan lost; control: WT corin
[6] = confocal co-staining after 4 hr CHX; conditions: glycan lost; control: WT corin
[7] = western blot, cleaved Corin-p band in lysate; conditions: glycan lost; control: WT corin
[8] = western blot of cell lysates, zymogen bands; conditions: glycan lost
[9] = cell surface biotinylation, western blot densitometry; conditions: glycan lost
[10] = cycloheximide chase, lysate western blot; conditions: glycan lost; control: WT corin
[11] = Endo H sensitive/resistant band ratio after 4 hr CHX; conditions: glycan lost; control: WT corin
[12] = western blot of cell lysates; conditions: glycan lost
[13] = western blot of conditioned medium; conditions: glycan lost
[14] = molecular target: prothrombin mutant PT-N416Q (human) (UniProt P98073); assay: co-IP; lysates of transfected HEK293 cells immunoprecipitated with anti-V5 antibody and protein A-Sepharose; co-precipitated endogenous chaperones detected by western blotting and densitometry; cells without or with DNJ (2 mM, 37°C, 24-48 hr)
Chain of UniProt P98073 (P98073 whole entry, stated change not applied): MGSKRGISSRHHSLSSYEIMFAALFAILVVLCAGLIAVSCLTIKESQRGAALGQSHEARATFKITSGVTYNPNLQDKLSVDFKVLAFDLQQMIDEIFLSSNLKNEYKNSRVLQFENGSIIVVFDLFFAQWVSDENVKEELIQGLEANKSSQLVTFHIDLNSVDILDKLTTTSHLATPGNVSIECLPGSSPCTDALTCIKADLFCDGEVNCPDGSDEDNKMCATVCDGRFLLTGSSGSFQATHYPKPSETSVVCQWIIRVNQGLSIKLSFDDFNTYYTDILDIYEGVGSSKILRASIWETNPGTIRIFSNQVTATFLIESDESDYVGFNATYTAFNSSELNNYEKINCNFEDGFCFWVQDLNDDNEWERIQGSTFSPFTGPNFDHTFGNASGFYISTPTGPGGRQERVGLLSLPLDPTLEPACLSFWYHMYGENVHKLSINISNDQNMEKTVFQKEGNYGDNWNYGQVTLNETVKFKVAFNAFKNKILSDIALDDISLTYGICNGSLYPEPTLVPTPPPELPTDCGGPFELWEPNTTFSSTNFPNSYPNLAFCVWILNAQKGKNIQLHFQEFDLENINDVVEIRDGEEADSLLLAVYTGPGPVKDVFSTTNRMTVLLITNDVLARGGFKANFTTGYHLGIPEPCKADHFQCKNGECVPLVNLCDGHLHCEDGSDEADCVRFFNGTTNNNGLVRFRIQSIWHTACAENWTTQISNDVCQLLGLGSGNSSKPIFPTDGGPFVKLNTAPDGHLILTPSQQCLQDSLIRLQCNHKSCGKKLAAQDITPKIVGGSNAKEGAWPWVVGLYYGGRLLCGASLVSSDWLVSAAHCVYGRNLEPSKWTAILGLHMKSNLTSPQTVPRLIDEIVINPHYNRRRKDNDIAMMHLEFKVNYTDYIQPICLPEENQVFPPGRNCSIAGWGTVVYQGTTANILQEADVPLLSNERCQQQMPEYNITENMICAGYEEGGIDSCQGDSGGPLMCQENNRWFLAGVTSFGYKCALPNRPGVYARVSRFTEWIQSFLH

[15] = molecular target: enteropeptidase mutant EK-4Q (human) (UniProt P00734); assay: as above
[16] = control: sR801A (soluble corin)

prothrombin (PT): DNJ
expression_or_secretion, percent_of_wt [1]: decreases
expression_or_secretion [2]: no change

prothrombin (PT): PT-N416Q
expression_or_secretion [3]: no change
expression_or_secretion, percent_of_wt [4]: decreases

B1: corin: N1022Q (protein)
parent chain: MKQSPALAPEERCRRAGSPKPVLRADDNNMGNGCSQKLATANLLRFLLLVLIPCICALVLLLVILLSYVGTLQKVYFKSNGSEPLVTDGEIQGSDVILTNTIYNQSTVVSTAHPDQHVPAWTTDASLPGDQSHRNTSACMNITHSQCQMLPYHATLTPLLSVVRNMEMEKFLKFFTYLHRLSCYQHIMLFGCTLAFPECIIDGDDSHGLLPCRSFCEAAKEGCESVLGMVNYSWPDFLRCSQFRNQTESSNVSRICFSPQQENGKQLLCGRGENFLCASGICIPGKLQCNGYNDCDDWSDEAHCNCSENLFHCHTGKCLNYSLVCDGYDDCGDLSDEQNCDCNPTTEHRCGDGRCIAMEWVCDGDHDCVDKSDEVNCSCHSQGLVECRNGQCIPSTFQCDGDEDCKDGSDEENCSVIQTSCQEGDQRCLYNPCLDSCGGSSLCDPNNSLNNCSQCEPITLELCMNLPYNSTSYPNYFGHRTQKEASISWESSLFPALVQTNCYKYLMFFSCTILVPKCDVNTGEHIPPCRALCEHSKERCESVLGIVGLQWPEDTDCSQFPEENSDNQTCLMPDEYVEECSPSHFKCRSGQCVLASRRCDGQADCDDDSDEENCGCKERDLWECPSNKQCLKHTVICDGFPDCPDYMDEKNCSFCQDDELECANHACVSRDLWCDGEADCSDSSDEWDCVTLSINVNSSSFLMVHRAATEHHVCADGWQEILSQLACKQMGLGEPSVTKLIQEQEKEPRWLTLHSNWESLNGTTLHELLVNGQSCESRSKISLLCTKQDCGRRPAARMNKRILGGRTSRPGRWPWQCSLQSEPSGHICGCVLIAKKWVLTVAHCFEGRENAAVWKVVLGINNLDHPSVFMQTRFVKTIILHPRYSRAVVDYDISIVELSEDISETGYVRPVCLPNPEQWLEPDTYCYITGWGHMGNKMPFKLQEGEVRIISLEHCQSYFDMKTITTRMICAGYESGTVDSCMGDSGGPLVCEKPGGRWTLFGLTSWGSVCFSKVLGPGVYSNVSYFVEWIKRQIYIQTFLLN
localisation_or_trafficking [5]: no change
localisation_or_trafficking, other: Pearson's correlation coefficient [6]: increases, 0.35 ± 0.05 vs 0.15 ± 0.06
other: proteolytic processing [7]: decreases
expression_or_secretion ([8]; control: WT corin): no change
expression_or_secretion, percent_of_wt ([9]; control: WT corin): decreases
degradation_or_half_life, half_life [10]: increases, 6.1 ± 0.3 vs 3.8 ± 0.4
localisation_or_trafficking [11]: changes

B2: corin: sN1022Q (protein)
parent chain: B1 parent chain
expression_or_secretion ([12]; control: sWT (soluble corin)): no change
expression_or_secretion, percent_of_wt ([13]; control: sWT (soluble corin)): decreases

B3: corin: R801A/N1022Q (protein)
parent chain: B1 parent chain with R801A
expression_or_secretion ([8]; control: R801A corin): no change
expression_or_secretion, percent_of_wt ([9]; control: R801A corin): decreases

B4: corin: sR801A/N1022Q (protein)
parent chain: B1 parent chain
expression_or_secretion [12, 16]: no change
expression_or_secretion, percent_of_wt [13, 16]: decreases

B5: calnexin (natural protein)
chain: HDGHDDDVIDIEDDLDDVIEEVEDSKPDTTAPPSSPKVTYKAPVPTGEVYFADSFDRGTLSGWILSKAKKDDTDDEIAKYDGKWEVEEMKESKLPGDKGLVLMSRAKHHAISAKLNKPFLFDTKPLIVQYEVNFQNGIECGGAYVKLLSKTPELNLDQFHDKTPYTIMFGPDKCGEDYKLHFIFRHKNPKTGIYEEKHAKRPDADLKTYFTDKKTHLYTLILNPDNSFEILVDQSVVNSGNLLNDMTPPVNPSREIEDPEDRKPEDWDERPKIPDPEAVKPDDWDEDAPAKIPDEEATKPEGWLDDEPEYVPDPDAEKPEDWDEDMDGEWEAPQIANPRCESAPGCGVWQRPVIDNPNYKGKWKPPMIDNPSYQGIWKPRKIPNPDFFEDLEPFRMTPFSAIGLELWSMTSDIFFDNFIICADRRIVDDWANDGWGLKKAADGAAEPGVVGQMIEAAEERPWLWVVYILTVALPVFLVILFCCSGKKQTSGMEYKKTDAPQPDVKEEEEEKEEEKDKGDEEEEGEEKLEEKQKSDAEEDGGTVSQEEEDRKPKAEEDEILNRSPRNRKPRRE
co-precipitated level, percent of that with PT-WT [14]: 171%
co-precipitated level, percent of that with EK-WT [15]: 165%
